From publication PMC12796238
Read-outs that look alike come from different tables or passages of the source.

How the values were obtained:
[1] = molecular target: Undamaged nucleosome core particle (Cy3-labeled human histone octamer on 191 bp Widom 601 DNA) (human) (UniProt P62807); experiment: single-molecule fluorescence with optical tweezers
[2] = molecular target: Undamaged nucleosome core particle (Cy3-labeled human histone octamer on 191 bp Widom 601 DNA) (human) (UniProt P62807); experiment: single-molecule fluorescence with optical tweezers; remark: listed apart in the source

Sequence of YFP-PARP1 (poly(ADP-ribose) polymerase 1, wild type) (P09874 whole entry): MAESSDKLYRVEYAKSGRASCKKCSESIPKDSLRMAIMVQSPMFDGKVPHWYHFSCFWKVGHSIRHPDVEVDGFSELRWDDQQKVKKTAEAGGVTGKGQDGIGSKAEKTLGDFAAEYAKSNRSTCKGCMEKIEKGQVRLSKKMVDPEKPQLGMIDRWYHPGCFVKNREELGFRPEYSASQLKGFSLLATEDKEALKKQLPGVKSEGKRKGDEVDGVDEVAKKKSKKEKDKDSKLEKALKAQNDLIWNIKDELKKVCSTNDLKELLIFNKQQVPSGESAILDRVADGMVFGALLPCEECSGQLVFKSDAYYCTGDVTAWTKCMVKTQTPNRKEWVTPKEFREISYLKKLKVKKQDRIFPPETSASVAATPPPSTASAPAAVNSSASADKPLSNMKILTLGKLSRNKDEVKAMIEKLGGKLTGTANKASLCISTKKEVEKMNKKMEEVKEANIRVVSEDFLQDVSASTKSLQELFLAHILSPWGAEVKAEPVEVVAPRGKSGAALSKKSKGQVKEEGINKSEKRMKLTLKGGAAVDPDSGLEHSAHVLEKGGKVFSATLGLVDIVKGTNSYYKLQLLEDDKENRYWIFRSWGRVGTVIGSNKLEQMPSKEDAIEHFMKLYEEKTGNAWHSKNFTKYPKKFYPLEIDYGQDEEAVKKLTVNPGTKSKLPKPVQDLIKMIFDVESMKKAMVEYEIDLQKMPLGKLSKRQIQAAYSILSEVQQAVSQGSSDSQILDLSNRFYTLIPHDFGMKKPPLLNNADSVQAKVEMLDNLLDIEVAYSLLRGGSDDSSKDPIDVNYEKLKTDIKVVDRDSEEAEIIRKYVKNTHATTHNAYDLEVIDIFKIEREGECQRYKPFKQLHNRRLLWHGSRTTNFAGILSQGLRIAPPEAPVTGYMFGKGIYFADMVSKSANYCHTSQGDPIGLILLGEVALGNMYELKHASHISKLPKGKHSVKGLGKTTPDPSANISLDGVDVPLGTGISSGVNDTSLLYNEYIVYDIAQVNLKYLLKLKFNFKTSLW

With “HaloTag-PARP1 H862A/Y896A/E988A (catalytically dead PARP1) (from UniProt P09874 1-1014) (enzyme)” the lifetime [1] was 56 s.

“YFP-PARP1 (poly(ADP-ribose) polymerase 1, wild type) (from UniProt P09874 1-1014) (enzyme)” gave a Kd [2] of 1 nM, a Kd [1] of 10.2 nM and a lifetime [1] of 2.5 s.
